Measurements: paper PMC4366279 (PLoS ONE, 2015)

B1: T. brucei RNA Editing Ligase 1 (TbREL1), full length wild type [modified: [35S]-methionine labelled; [35S]-methionine labelled] [Trypanosoma brucei] / KREPA2 [modified: [35S]-methionine labelled; [35S]-methionine labelled] [Trypanosoma … (parent complex)
chain 1: YMPLPNDQSDFSPYIEIDLPSESRIQSLHKSGLAAQEWVACEKVHGTNFGIYLINQGDHEVVRFAKRSGIMDPNENFFGYHILIDEFTAQIRILNDLLKQKYGLSRVGRLVLNGELFGAKYKHPLVPKSEKWCTLPNGKKFPIAGVQIQREPFPQYSPELHFFAFDIKYSVSGAEEDFVLLGYDEFVEFSSKVPNLLYARALVRGTLDECLAFDVENFMTPLPALLGLGNYPLEGNLAEGVVIRHVRRGDPAVEKHNVSTIIKLRCSSFMELKHPGKQKELKETFIDTVRSGALRRVRGNVTVISDSMLPQVEAAANDLLLNNVSDGRLSNVLSKIGREPLLSGEVSQVDVVLMLAKDALKDFLKEVDSLVLNTTLAFRKLLITNVYFESKRLVEQKWKELMQEEAAAQSEAIPPLSPAAPTKGE
chain 2: MYRRFFRSAAVKHLGTTSAQCLMRATKYPCGAMCRNASSCHPQTLGYQQRFQSTTDKKFHCSVCKKPFRLEMAAKLHLQQAHGGDGSVEAGPGPGVEASSVNVVSTPVPSPISPVERTFVDEEERRPRRMRPTPKPLHQPDRDIPAAAMEEMLGVWDKIGLNRLEGNFVHSTMVMKVFAAPPDVSEIPLYEHVAPEGENPFDSLDHMTTGTVDATYVGHDAFAEVDLVDPFVAAPDQTLNPFRAGKVRNPFTRISPTQREVVKPLQPPQPKEEPLKAPVTPFGQLPMFGQTREPSASFAAAAVSVQAAANPNEVSSPFAAAVSSSPFVGQVASPFAPAQDVAGSPFEASPCAASSPFVTAGGQETSPFAAPSTPASFGQGSLFPPMGTGAPGFTAITETEQRQQELEHGCPTCGKKFSTFEGAAMHSKSKHGIVLESKKVKDRLNRKGVPDLPAYVPSPVDLSSTSPFGTRSAIGASWAETELIPHAQCVSNITIVGRVLDVSQASENVSHVTVFVEGERSGEEETLTLCCFGEVSQKIRGTLKRNATIFASGTLRLHPVYEASNNKYYVSPVVHVSMPTGTLAVIT

Variants of: B1
Experiment: co-precipitation (pull-down) with His-tag isolation beads, [35S]-methionine labeled proteins; parent: 100; read off a plot

With chain 1 S259A as the variant, how does the percent of parent read?
The percent of parent was ~100 % of WT.

For chain 1 S170A, which percent of parent is on record?
Its percent of parent is ~66 % of WT.

Which percent of parent does the source give for chain 1 Y231A here?
The percent of parent was ~75 % of WT.

For chain 1 K335A, which percent of parent is on record?
Its percent of parent is ~57 % of WT.

With chain 1 H161A as the variant, how does the percent of parent read?
Its percent of parent is ~94 % of WT.

How did the percent of parent turn out when chain 1 K399A was run?
Its percent of parent is ~60 % of WT.

chain 1 K122A was tested. Which percent of parent did it give?
The percent of parent was ~100 % of WT.

How did the percent of parent turn out when chain 1 K380A was run?
The percent of parent was ~84 % of WT.

chain 1 Q56A was tested. Which percent of parent did it give?
Its percent of parent is ~110 % of WT.

chain 1 E37A was tested. Which percent of parent did it give?
Its percent of parent is ~67 % of WT.

chain 1 W398A was tested. Which percent of parent did it give?
Its percent of parent is ~66 % of WT.

How did the percent of parent turn out when chain 1 K391A was run?
Its percent of parent is ~88 % of WT.

With chain 1 K361A as the variant, how does the percent of parent read?
The percent of parent was ~67 % of WT.

With chain 1 E366A as the variant, how does the percent of parent read?
Its percent of parent is ~72 % of WT.

How did the percent of parent turn out when chain 1 T220A was run?
The percent of parent was ~84 % of WT.

For chain 1 E75A, which percent of parent is on record?
Its percent of parent is ~74 % of WT.

Which percent of parent does the source give for chain 1 E411A here?
The percent of parent was ~94 % of WT.
